Measurements as given in patent US20100093619A1.

Key:
Experiment in all cases: cell-based or functional assay
[1] = molecular target: serine-like chymotrypsin protease activity from Sesamia nonagrioides (Mediterranean corn borer) gut extracts (Sesamia nonagrioides)
[2] = molecular target: serine-like trypsin protease activity from Ostrinia nubilalis (European corn borer) gut extracts (Ostrinia nubilalis)
[3] = molecular target: cysteine-like cathepsin-L protease activity from Acyrthosiphon pisum (pea aphid) extracts (Acyrthosiphon pisum)
[4] = molecular target: serine-like trypsin protease activity from Spodoptera littoralis (cotton leafworm) gut extracts (Spodoptera littoralis)
[5] = molecular target: cysteine-like cathepsin-L protease activity from Tribolium castaneum (red flour beetle) extracts (Tribolium castaneum)
[6] = molecular target: cysteine-like cathepsin-L protease activity from Bemisia tabaci (sweetpotato whitefly) extracts (Bemisia tabaci)
[7] = molecular target: cysteine-like cathepsin-L protease activity from Leptinotarsa decemlineata (Colorado potato beetle) gut extracts (Leptinotarsa decemlineata)
[8] = molecular target: cysteine-like cathepsin-L protease activity from Tetranychus urticae (spider mite) extracts (Tetranychus urticae)
[9] = molecular target: serine-like chymotrypsin protease activity from Spodoptera littoralis (cotton leafworm) gut extracts (Spodoptera littoralis)
[10] = molecular target: cysteine-like cathepsin-B protease activity from Acyrthosiphon pisum (pea aphid) extracts (Acyrthosiphon pisum)
[11] = molecular target: cysteine-like cathepsin-B protease activity from Leptinotarsa decemlineata (Colorado potato beetle) gut extracts (Leptinotarsa decemlineata)
[12] = molecular target: serine-like trypsin protease activity from Sesamia nonagrioides (Mediterranean corn borer) gut extracts (Sesamia nonagrioides)

B1: recombinant AtSerpin1 (Arabidopsis thaliana serpin-1, At1g47710), HIS6-tagged (protein, not shown: small tags and cut ends)
chain: MDVRESISLQNQVSMNLAKHVITTVSQNSNVIFSPASINVVLSIIAAGSAGATKDQILSFLKFSSTDQLNSFSSEIVSAVLADGSANGGPKLSVANGAWIDKSLSFKPSFKQLLEDSYKAASNQADFQSKAVEVIAEVNSWAEKETNGLITEVLPEGSADSMTKLIFANALYFKGTWNEKFDESLTQEGEFHLLDGNKVTAPFMTSKKKQYVSAYDGFKVLGLPYLQGQDKRQFSMYFYLPDANNGLSDLLDKIVSTPGFLDNHIPRRQVKVREFKIPKFKFSFGFDASNVLKGLGLTSPFSGEEGLTEMVESPEMGKNLCVSNIFHKACIEVNEEGTEAAAASAGVIKLRGLLMEEDEIDFVADHPFLLVVTENITGVVLFIGQVVDPLH
[1]
  concentration of AtSerpin1 for ≧50% inhibition of chymotrypsin activity (FIG. 11): > 10 µM
[2]
  % Inhibition of trypsin activity at 2 µM AtSerpin1: 28%
[3]
  % Inhibition of cathepsin L activity at 1.25 µM AtSerpin1: 42%
  % Inhibition of cathepsin L activity at 5 µM AtSerpin1: 42%
  % Inhibition of cathepsin L activity at 10 µM AtSerpin1: 39%
  plateau of % inhibition of cathepsin-L activity (FIG. 14): 60%
[4]
  % Inhibition of trypsin activity at 1.25 µM AtSerpin1: 52%
  % Inhibition of trypsin activity at 5 µM AtSerpin1: 83%
  % Inhibition of trypsin activity at 10 µM AtSerpin1: 90%
  concentration of AtSerpin1 for 50% inhibition of trypsin activity (fluorometric substrate, FIG. 10): 1 µM
[5]
  IC50 of inhibition of cathepsin-L activity (FIG. 13): 4 µM
[6]
  % inhibition of cathepsin-L activity at 20 µM AtSerpin1 (FIG. 15): 45%
[7]
  % Inhibition of cathepsin L activity at 1.25 µM AtSerpin1: 4%
  % Inhibition of cathepsin L activity at 5 µM AtSerpin1: 34%
  % Inhibition of cathepsin L activity at 10 µM AtSerpin1: 48%
  concentration of AtSerpin1 for 50% inhibition of cathepsin-L activity (fluorometric substrate, FIG. 12): > 10 µM
[8]
  concentration of AtSerpin1 for 50% inhibition of cathepsin-L activity (FIG. 16): 2 µM
[9]
  % Inhibition of chymotrypsin activity at 1.25 µM AtSerpin1: 10%
  % Inhibition of chymotrypsin activity at 5 µM AtSerpin1: 31%
  % Inhibition of chymotrypsin activity at 10 µM AtSerpin1: 40%
  concentration of AtSerpin1 for 50% inhibition of chymotrypsin activity (FIG. 10): 10 to 20 µM
[10]
  % Inhibition of cathepsin B activity at 1.25 µM AtSerpin1: 50%
  % Inhibition of cathepsin B activity at 5 µM AtSerpin1: 55%
  % Inhibition of cathepsin B activity at 10 µM AtSerpin1: 55%
  concentration of AtSerpin1 for 50% inhibition of cathepsin-B activity (FIG. 14): 1 µM
[11]
  % Inhibition of cathepsin B activity at 1.25 µM AtSerpin1: 40%
  % Inhibition of cathepsin B activity at 5 µM AtSerpin1: 47%
  % Inhibition of cathepsin B activity at 10 µM AtSerpin1: 46%
  concentration of AtSerpin1 for 50% inhibition of cathepsin-B activity (fluorometric substrate, FIG. 12): > 10 µM
[12]
  % Inhibition of trypsin activity at 1.25 µM AtSerpin1: 90%
  % Inhibition of trypsin activity at 5 µM AtSerpin1: 97%
  % Inhibition of trypsin activity at 10 µM AtSerpin1: 98%
  concentration of AtSerpin1 for 50% inhibition of trypsin activity (FIG. 11): 0.1 µM
